# Source: publication PMC2330189 (Acta Crystallographica Section F: Structural Biology and …, 2007)
# Molecular target: the molecule itself
# Experiment: SEC
protein,measurement,value
"1,3-propanediol dehydrogenase from Klebsiella pneumoniae (enzyme, UniProt Q59477 1-387, looked up) MSYRMFDYLVPNVNFFGPNAISVVGERCQLLGGKKALLVTDKGLRAIKDGAVDKTLHYLREAGIEVAIFDGVEPNPKDTNVRDGLAVFRREQCDIIVTVGGGSPHDCGKGIGIAATHEGDLYQYAGIETLTNPLPPIVAVNTTAGTASEVTRHCVLTNTETKVKFVIVSWRNLPSVSINDPLLMIGKPAALTAATGMDALTHAVEAYISKDANPVTDAAAMQAIRLIARNLRQAVALGSNLQARENMAYASLLAGMAFNNANLGYVHAMAHQLGGLYDMPHGVANAVLLPHVARYNLIANPEKFADIAELMGENITGLSTLDAAEKAIAAITRLSMDIGIPQHLRDLGVKEADFPYMAEMALKDGNAFSNPRKGNEQEIAAIFRQAF",stoichiometry N,10
